From US5767072A (priority 1993, dated 1998)
Where no end group is shown, it is not given here.

Legend:
[1] = target: T1, rgp120 (Human immunodeficiency virus type 1 group M subtype B, UniProt P03375); assay: inhibition of the binding of rCD4-HRP to rgp120 by rCD4 and CD4 peptides; parameters: species or system HIV-1; conditions: even at concentrations of 50 μM
Experimental: The relative affinity of the CD4-peptides-OVA for rgp120 vs rCD4 was calculated by dividing the […].

[2] = tested on: HIV infected cells; assay type: cell-based
[3] = target: gp120 (Human immunodeficiency virus type 1 group M subtype B, UniProt P03375); assay type: binding, HIV-1
[4] = target: T1, rgp120; assay: direct ELISA binding of peptide-OVA to rgp120; parameters: species or system HIV-1
Experimental: CD4-peptide (41-84)-OVA (.circle-solid.); CD4-peptide (40-57)-OVA (.smallcircle.); CD4-peptide (81-92)-OVA (.box-solid.). Control peptide-OVA and OVA (.box-solid.).
Wells coated with rgp120 and blocked as described above were treated with various concentrations of peptide-OVA or OVA (control) in 100 μl and the plate was incubated for 2 hr at 25° C. The plates were washed and then incubated with rabbit IgG anti-OVA coupled to HRP (5 μl/ml) for 2 hr at 25° C. The binding of the labeled antibody was detected as described above. Linear regression curves were generated by plotting the absorption vs the concentration of peptide-OVA.

With “Gln-Gly-Ser-Phe-Leu-Thr-Lys-Gly-Pro-Ser-Lys-Leu-Asn-Asp-Arg-^3 H-Ala-Asp-Ser [CD4-peptide (40-57)]” the “inhibition of the binding of rCD4 to gp120 by free peptides” value [1] was “did not inhibit the binding of rCD4 to gp120”.

TYICEVEDGKEE [CD4-peptide (81-92)] was tested, and the “inhibition of the binding of rCD4 to gp120 by free peptides” value [1] was “did not inhibit the binding of rCD4 to gp120”.

`CCN(CC)CCCC(C)Nc1ccnc2cc(Cl)ccc12` (centres unmarked) [chloroquine] was tested, and the “anticellular activity against HIV infected cells” value [2] was “significant anticellular activity”.

For GSFLTKGPSKLNDRADS [peptide 41-57], the “inhibition of the binding of CD4 to gp120” value [3] was “unable to inhibit the binding of CD4 to gp120”.

B1: OVA: ovalbumin, carrier protein control (protein, UniProt P01012 2-386, looked up)
Ovalbumin: GSIGAASMEFCFDVFKELKVHHANENIFYCPIAIMSALAMVYLGAKDSTRTQINKVVRFDKLPGFGDSIEAQCGTSVNVHSSLRDILNQITKPNDVYSFSLASRLYAEERYPILPEYLQCVKELYRGGLEPINFQTAADQARELINSWVESQTNGIIRNVLQPSSVDSQTAMVLVNAIVFKGLWEKAFKDEDTQAMPFRVTEQESKPVQMMYQIGLFRVASMASEKMKILELPFASGTMSMLVLLPDEVSGLEQLESIINFEKLTEWTSSNVMEERKIKVYLPRMKMEEKYNLTSVLMAMGITDVFSSSANLSGISSAESLKISQAVHAAHAEINEAGREVVGSAEAGVDAASVSEEFRADHPFLFCIKHIATNAVLFFGRCVSP
B1 was tested, and the “binding to gp120 in direct ELISA” value [4] was “did not bind gp120”.
